Tests used:
[1] = molecular target: T1, association between PDK1 and Akt1 (Mus musculus, UniProt Q9Z2A0); assay: PDK and Akt1 interaction assay (cell extracts, IP/western pull-down); assay type: binding, mouse (C2C12 myotubes); conditions: for association between Akt and PDK1 (co-immunoprecipitation): 5 μM, mixed cell extracts, 30 min at 30° C.
T1 construct: These were relatively enriched with endogenous PDK; expressed in transfected cells; host or cells: mouse C2C12 myotubes infected with Adv WT-Akt; control C2C12 extracts as source of endogenous PDK1
T1 sequence (Q9Z2A0 1-559): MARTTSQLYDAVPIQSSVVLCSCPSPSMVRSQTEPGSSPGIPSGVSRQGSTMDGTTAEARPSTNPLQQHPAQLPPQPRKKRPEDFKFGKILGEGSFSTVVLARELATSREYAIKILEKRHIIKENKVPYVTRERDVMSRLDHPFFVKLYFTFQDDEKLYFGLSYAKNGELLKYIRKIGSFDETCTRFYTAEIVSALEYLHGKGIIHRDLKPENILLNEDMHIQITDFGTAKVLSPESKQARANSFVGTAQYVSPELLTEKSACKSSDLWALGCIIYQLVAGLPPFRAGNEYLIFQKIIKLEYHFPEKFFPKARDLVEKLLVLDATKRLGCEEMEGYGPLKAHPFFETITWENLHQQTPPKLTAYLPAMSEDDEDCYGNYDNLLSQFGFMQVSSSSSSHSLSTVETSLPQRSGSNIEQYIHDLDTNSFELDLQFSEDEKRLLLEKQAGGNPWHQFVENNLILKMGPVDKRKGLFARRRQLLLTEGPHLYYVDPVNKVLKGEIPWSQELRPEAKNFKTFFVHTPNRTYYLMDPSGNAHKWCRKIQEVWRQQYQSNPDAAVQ
Experimental: Accordingly, the effect of Aβ on PDK/Akt interactions may be evaluated in any suitable in vitro assay. In some embodiments, PDK1 may be prepared from extracts of mouse C2C12 myotube cultures. To increase the amount of available Akt, this protein may be prepared from C2C12 myotubes that had previously been infected with an adenovirus expressing wild type Akt (Adv-wtAkt). In some embodiments, to measure the interaction between these proteins, the cell extracts above were mixed for 30 minutes at 30° C. either in the presence or absence of added 5 μM Aβ1-42. […] The inability of PDK1 to interact with its target Akt led to a decrease in Akt activation and a loss of the subsequent downstream phosphorylations (e.g., GSK3β peptide as in FIGS. 3A and 3C, not shown).
For cell-based interaction studies, intracellular Aβ42 production was induced by infecting C2C12 myotubes with Adv Aβ/TetOn. These cell extracts (100 μg) were used to IP endogenous Akt, and from this pull-down, determine the levels of associated PDK by western blot. The in vitro interaction study involved first enriching for Akt through viral-mediated expression of WT-Akt. Akt-enriched/PDK-depleted extract was then prepared by removing the PDK, via immunoprecipitation, from the Akt-enriched cell extract. Akt-depleted extracts were prepared from control extracts by pre-immunoprecipitating Akt. These were relatively enriched with endogenous PDK. The enrichments and depletions were confirmed by western blot analysis. The interaction assay contained a mixture of 100 μg Akt-enriched and 100 μg control cell extract in the presence or absence of Aβ42 (up to 10 μM). The mixtures were incubated for 30 minutes at 30° C., followed by overnight incubation at 4° C. with goat anti-Akt1. Protein G beads were added with mixing for 1.5 hr. PDK1 and Akt1 levels were determined by western blot. In control experiments, 100 μg of Akt-enriched, PDK-depleted extract and 100 μg of a control extract depleted for Akt were mixed in the presence or absence of Aβ42 (up to 5 μM) and subjected to the same analyses.

[2] = test system: C2C12 myotubes; assay: Extracellular peptide or insulin treatment of C2C12 myotubes, western blot of Akt signaling; assay type: cell-based, mouse
Experimental: The prior cell-based and in vitro experiments are relevant to […] Aβ effects. To determine the specificity of Akt inhibition by […] Aβ, C2C12 myotubes were cultured, and treated with extracellular Aβ25-35, Aβ35-25, Aβ1-42 and Aβ42-1 for 24 hours. In the last 30 minutes before harvest, insulin was added (0.1 μg/ml). While p-Akt (Ser473) and p-GSK-3 α/β levels were increased by insulin treatment (FIG. 9C, lane 2 vs. 1), they were not affected by any of the Aβ treatments. […] There were also no significant changes in p-Akt (Ser473) levels (data not shown). […] PDK itself is subject to phosphorylation (e.g., at Ser 241) and several authors feel that it is constitutively phosphorylated and thus ‘primed’ (Casamayor, A., Morrice, N. A., and Alessi, D. R., 1999, Phosphorylation of Ser-241 is essential for the activity of 3-phosphoinositide-dependent protein kinase-1: identification of five sites of phosphorylation in vivo, Biochem J 342 (Pt 2):287-292). The experiments described herein indicate that p-PDK levels are constitutively high in C2C12 cells and not boosted further by insulin action (FIG. 9E, top). p-PDK levels were not modulated by extracellular (FIG. 9E lower panel) or intracellular Aβ expression (not shown).
In FIG. 9C C2C12 myotubes were bath exposed to AP25-35, reverse AP35-25, AP1-42 and reverse Aβ42-1 peptides for 24 hours before treatment with insulin (0.1 μg/ml, 15 min) Whole cell extracts were subjected to Western analysis for p-Akt (Ser473) (Akt activation) and total Akt levels (top) as well as for endogenous levels of pGSK-3a/p, indicative of Akt activity, and total GSK-3β (lower two blots). […] The increase was not affected by pre-treatment with extracellular AR.
In FIG. 9D C2C12 myotube cultures were exposed to increasing doses of A[i1-42 (0, 10 and 25 μM) for 2 hours before treatment with insulin (0, 20, 100 and 500 ng/ml) for 15 min Harvested cell extracts were used for western blot for p-Akt (Thr308).

- association between Akt and PDK1 (co-immunoprecipitation) [1]: pulled-down less PDK
- association between Akt and PDK1 (co-immunoprecipitation) ([1]; listed as Aβ1-42): dramatic reduction
- pull-down of PDK1 with Akt1 ([1]; 10 μM, Akt-enriched plus control extracts): abrogated
Substance: Aβ42: synthetic 42 amino acid β-amyloid peptide, forward sequence, freshly prepared, predominantly monomeric (BioSource)
- p-PDK (Ser241) levels ([2]; extracellular 1-100 nM, 2 or 24 hours, then insulin 500 ng/ml 30 min): remain unaffected
- p-Akt (Ser473) and p-GSK-3 α/β levels after insulin ([2]; extracellular peptide 24 hours, then insulin 0.1 μg/ml): not affected
- p-Akt (Thr308) levels, insulin dose response ([2]; extracellular, up to 25 μM in the media, insulin 20, 100, 500 ng/ml): did not affect

Source: US9618511B2, “Methods and compositions for treating alzheimer's disease” (Eleanore Bennett Charitable Trust #2, priority 2008, dated 2017)
